Patent US20200216522A1 (DENALI THERAPEUTICS, published 2020)
Substitutions are numbered along the chain they refer to. “And” between values parts separate entries of the source, which are not always exact repeats. Equal values may be shown once.

B1: Clone 1A1 Fab (Fab, V domains shown)
VH: EVQLQQSGAELVRPGASVRLSCTASGFNIKDSLMHWLKQRPEQGLEWIGWIDPEDGETKYAPKFQDKATITADTSSNTAYLQLSSLTSEDTAIYYCTRRDWEGPWGQGTLVTVSA
VL: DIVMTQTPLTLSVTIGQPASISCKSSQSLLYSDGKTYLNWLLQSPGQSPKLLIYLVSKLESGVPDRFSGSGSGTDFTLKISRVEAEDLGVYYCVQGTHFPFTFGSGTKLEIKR
notes: crude periplasmic Fab; mouse V regions joined to human CH1 and human kappa constant
B2: Clone 1C7 Fab (Fab, V domains shown)
VH: EVKLVESGGGLVKPGGSLKLSCAASGFTFSSYGMSWVRQTPEKRLEWVASISGDGGSYIHYADSVKGRFTISRDSAKNTLYLQMSSLRSEDTALYYCARLPYWGQGTLVTVSA
VL: DIVMTQSPSSLTVTAGEKVTMSCKSSQSLLNSGNQKNYLTWYQQKPGQPPKLLIYWASTRESGVPDRFTGSGSGTDFTLTISNVQSEDLAEYFCQQYNSYPLTFGAGTKLELKR
notes: as for B1
B3: Clone 1A5 Fab (Fab, V domains shown)
VH: EVQLQQSGAELVRPGASVKLSCTASGFNIKDSLIHWVKQRPEQGLEWIGWIDPEDGETKYAPKFQDKATKTADTSSNTAYLQLSSLTSEDTAIYYCASGEWDYWGQGTSVTVSS
VL: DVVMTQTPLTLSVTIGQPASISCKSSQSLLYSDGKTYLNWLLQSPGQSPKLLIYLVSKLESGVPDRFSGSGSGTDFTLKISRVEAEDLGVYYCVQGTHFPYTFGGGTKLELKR
notes: as for B1
B4: Clone 1D10 Fab (Fab, V domains shown)
VH: EVQLQQSGAELVRPGASVKLSCTASGFNIKDSLMHWMKQRPEQGLEWIGWIDPEDGETKYAPKFQDKATLTADTSSNAAYLQLSSLTSEDTAIYYCVRGDWDGGYWGQGTTLTVSS
VL: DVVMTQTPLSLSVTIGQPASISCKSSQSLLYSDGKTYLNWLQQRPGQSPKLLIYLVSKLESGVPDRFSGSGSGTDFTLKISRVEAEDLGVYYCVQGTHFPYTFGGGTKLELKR
notes: as for B1
B5: Clone 1G7 Fab (Fab, V domains shown)
VH: B1 VH with L11V, R19K, A24T, E89G, T97A
VL: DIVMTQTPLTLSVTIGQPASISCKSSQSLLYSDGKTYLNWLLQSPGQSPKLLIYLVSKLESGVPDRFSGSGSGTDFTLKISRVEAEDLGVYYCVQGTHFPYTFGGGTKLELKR
notes: as for B1
B6: chimeric IgG clone 1C7 (antibody, V domains shown)
VH: B2 VH
VL: B2 VL
notes: mouse-human chimeric IgG from HEK293; also called 1C7.IgG; anti-Tau^1C7

Key:
[1] = molecular target: human Tau splice isoform 2N3R (Tau410) (human, UniProt P10636 1-758); assay: Fab ELISA
Description: (§1) Half-area ELISA plates (Costar™) were coated overnight at 4° C. with 25 μL per well of 0.5 μg/mL r-Tau or p-Tau. The plates were washed three times with PBST using a BioTek® plate washer. The plates were then blocked for one hour at room temperature with 100 μL per well of PBSA. After washing three times with PBST, the periplasmically-expressed Fabs were added ([…]) and the plates were incubated for one hour. The plates were subsequently washed three times with PBST, and 25 μL per well of PBSA containing a 1:5,000 dilution of HRP-conjugated rabbit anti-human kappa (obtained from Bethyl Laboratories) was added. The plates were incubated at room temperature for 30 minutes, then washed three times with PBST. The plates were developed by adding 25 μL per well of TMB substrate (obtained from Thermo Fisher) and quenched with 2N H₂SO₄. The signal was quantified on a BioTek® plate reader at A₄₅₀. Wells with signal greater than 5-fold over background for both r-Tau and p-Tau were considered positive and the clones were re-arrayed from the primary culture for confirmation of binding (by repeat of ELISA) and sequencing of the variable regions.
(§2) ELISAs were performed essentially as described above, but coating was performed using 1 μg/mL of each recombinant Tau species and using a 1:1 dilution (in PBS with 0.1% BSA, 0.05% Tween®) of Fab containing supernatant. The results of the ELISAs, showing Fab binding to cyno Tau and mouse Tau, as well as binding to phosphorylated full-length human Tau and the human Tau isoforms, are shown in Table 1 below.

[2] = molecular target: T1, C-terminal truncated human Tau (Tau(1-421)) (human, UniProt P10636 1-738); assay: Fab ELISA
T1 construct: also called 1-421 (2N4R)
Description: as §1, §2

[3] = molecular target: T2, N-terminal truncated human Tau (Tau(50-441)) (human, UniProt P10636 50-758); assay: Fab ELISA
T2 construct: also called 50-441 (2N4R)
Description: as §1, §2

mouse Tau = mouse Tau (mouse, UniProt P10637 2-733); assay: Fab ELISA
Description: as §1, §2

[4] = molecular target: human Tau splice isoform 1N3R (Tau381) (human, UniProt P10636 1-758); assay: Fab ELISA
Description: as §1, §2

[5] = molecular target: human Tau splice isoform 1N4R (Tau412) (human, UniProt P10636 1-758); assay: Fab ELISA
Description: as §1, §2

[6] = molecular target: human Tau splice isoform 0N4R (Tau383) (human, UniProt P10636 1-758); assay: Fab ELISA
Description: as §1, §2

[7] = molecular target: human Tau splice isoform 0N3R (Tau352) (human, UniProt P10636 1-758); assay: Fab ELISA
Description: as §1, §2

cynomolgus monkey Tau = molecular target: T3, cynomolgus monkey Tau (cynomolgus monkey, UniProt P57786 2-459 (rhesus entry)); assay: Fab ELISA
T3 construct: also called cyno Tau; cyno-Tau
Description: as §1, §2

[8] = molecular target: T4, hyperphosphorylated recombinant human Tau441 (p-Tau) (human, UniProt P10636 1-758, phosphorylated in vitro with PKA and GSK3beta; sites not listed); assay: Fab ELISA
T4 construct: also called p-Tau (2N4R); phosphorylated r-Tau
Description: as §1, §2

[9] = molecular target: T5, full-length human Tau (Tau441; 2N4R), recombinant (human, UniProt P10636 1-758); assay: Fab ELISA
T5 construct: made in E. coli, His6-Smt3 tag removed; biotinylated through amines for Octet and phage work; also called r-Tau; recombinant Tau
Description: as §1, §2

[10] = molecular target: T5, full-length human Tau (Tau441; 2N4R), …; assay: Octet binning on biotin-r-Tau; competitor 1A5
Description: (§3) Epitope binning assays were performed using a FortéBio® Octet® RED384 instrument using FortéBio® Streptavidin biosensors. Biotinylated recombinant Tau was diluted to a concentration of 2 μg/mL in kinetic buffer (obtained from FortéBio®) and captured onto individual biosensors for 1 minute. A baseline was then established for 1 minute in kinetic buffer. The loaded biosensors were dipped into 10 μg/mL of the first chimeric IgG antibody until signal saturation, followed by dipping into 1 μg/mL of a second antibody. The binding for the second antibody was normalized to its total binding in the absence of the first antibody.

[11] = molecular target: T5, full-length human Tau (Tau441; 2N4R), …; assay: Octet binning on biotin-r-Tau; row antibody Ab107 (anti-BACE1 control)
Description: as §3

[12] = molecular target: T5, full-length human Tau (Tau441; 2N4R), …; assay: Octet binning on biotin-r-Tau; competitor 1G7
Description: as §3

[13] = molecular target: T5, full-length human Tau (Tau441; 2N4R), …; assay: SPR Biacore
[14] = molecular target: T5, full-length human Tau (Tau441; 2N4R), …; assay: Octet binning on biotin-r-Tau; competitor 1D10
Description: as §3

[15] = molecular target: T5, full-length human Tau (Tau441; 2N4R), …; assay: Octet binning on biotin-r-Tau; competitor 1C7
Description: as §3

[16] = molecular target: T5, full-length human Tau (Tau441; 2N4R), …; assay: SPR Biacore, IgG captured, r-Tau injected
Description: The affinity of chimeric IgG antibodies 1C7, 1A1, 1A5, 1D10, and 1G7 for recombinant Tau was determined by surface plasmon resonance using a Biacore™ T200 instrument. Biacore™ Series S CM5 sensor chips were immobilized with monoclonal mouse anti-human IgG (Fc) antibody (human antibody capture kit from GE Healthcare). 1 μg/mL of antibody was captured for 1 minute on each flow cell and serial 3-fold dilutions of recombinant Tau were injected at a flow rate of […]. Each sample was analyzed with a 3-minute association and a 10-minute dissociation. After each injection the chip was regenerated using 3M MgCl₂. Binding response was corrected by subtracting the RU from a flow cell capturing an irrelevant IgG at similar density. A 1:1 Languir model of simultaneous fitting of kₒₙ and koff was used for kinetics analysis.

T3 sequence (P57786 other isoform, or with tags, fused parts or gaps limits assumed): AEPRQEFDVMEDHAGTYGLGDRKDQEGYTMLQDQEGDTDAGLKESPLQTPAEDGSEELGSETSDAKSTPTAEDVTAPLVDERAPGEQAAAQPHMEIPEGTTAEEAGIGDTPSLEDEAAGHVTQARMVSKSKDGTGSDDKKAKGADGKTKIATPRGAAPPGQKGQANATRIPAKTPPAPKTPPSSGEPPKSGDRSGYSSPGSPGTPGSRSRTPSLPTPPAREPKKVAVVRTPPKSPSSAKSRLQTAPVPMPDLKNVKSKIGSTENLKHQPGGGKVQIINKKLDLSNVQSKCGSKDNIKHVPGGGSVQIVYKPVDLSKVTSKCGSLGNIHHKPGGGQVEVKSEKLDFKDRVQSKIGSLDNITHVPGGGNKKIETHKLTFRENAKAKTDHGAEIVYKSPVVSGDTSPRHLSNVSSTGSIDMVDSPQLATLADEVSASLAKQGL
Sequence of human Tau splice isoform 0N4R (Tau383) (P10636 other isoform, or with tags, fused parts or gaps limits assumed): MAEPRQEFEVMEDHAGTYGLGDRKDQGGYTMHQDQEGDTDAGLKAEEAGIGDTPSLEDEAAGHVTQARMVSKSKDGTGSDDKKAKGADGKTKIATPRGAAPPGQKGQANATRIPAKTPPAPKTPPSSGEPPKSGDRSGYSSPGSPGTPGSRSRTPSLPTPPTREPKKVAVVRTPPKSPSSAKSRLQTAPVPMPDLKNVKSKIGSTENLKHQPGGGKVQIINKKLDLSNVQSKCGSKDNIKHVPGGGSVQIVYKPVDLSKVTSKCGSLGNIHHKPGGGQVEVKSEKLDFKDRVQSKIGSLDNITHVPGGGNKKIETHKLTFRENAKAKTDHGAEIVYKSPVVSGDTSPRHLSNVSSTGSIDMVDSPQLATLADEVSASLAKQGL
Sequence of human Tau splice isoform 0N3R (Tau352) (P10636 other isoform, or with tags, fused parts or gaps limits assumed): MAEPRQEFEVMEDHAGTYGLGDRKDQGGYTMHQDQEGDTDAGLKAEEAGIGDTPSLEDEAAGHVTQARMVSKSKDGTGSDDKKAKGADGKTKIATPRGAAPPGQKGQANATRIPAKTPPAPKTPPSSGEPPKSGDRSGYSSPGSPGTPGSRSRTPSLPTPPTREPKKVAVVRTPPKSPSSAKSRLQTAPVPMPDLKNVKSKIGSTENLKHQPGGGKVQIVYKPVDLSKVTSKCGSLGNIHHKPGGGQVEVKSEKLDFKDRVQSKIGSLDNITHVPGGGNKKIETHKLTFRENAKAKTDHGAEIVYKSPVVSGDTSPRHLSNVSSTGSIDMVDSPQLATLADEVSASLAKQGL
T1 sequence (P10636 other isoform, or with tags, fused parts or gaps limits assumed): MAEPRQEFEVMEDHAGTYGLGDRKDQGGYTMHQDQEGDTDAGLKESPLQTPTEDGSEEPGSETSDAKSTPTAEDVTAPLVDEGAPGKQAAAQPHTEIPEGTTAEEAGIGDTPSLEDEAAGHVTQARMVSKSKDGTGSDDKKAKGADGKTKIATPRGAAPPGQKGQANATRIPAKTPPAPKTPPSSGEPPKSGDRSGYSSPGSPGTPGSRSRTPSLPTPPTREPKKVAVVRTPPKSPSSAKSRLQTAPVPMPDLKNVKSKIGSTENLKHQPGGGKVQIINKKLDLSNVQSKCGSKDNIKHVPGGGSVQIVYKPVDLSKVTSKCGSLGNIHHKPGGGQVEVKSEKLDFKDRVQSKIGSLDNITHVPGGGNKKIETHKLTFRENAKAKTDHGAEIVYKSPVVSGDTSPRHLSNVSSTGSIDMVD
T2 sequence (P10636 other isoform, or with tags, fused parts or gaps limits assumed): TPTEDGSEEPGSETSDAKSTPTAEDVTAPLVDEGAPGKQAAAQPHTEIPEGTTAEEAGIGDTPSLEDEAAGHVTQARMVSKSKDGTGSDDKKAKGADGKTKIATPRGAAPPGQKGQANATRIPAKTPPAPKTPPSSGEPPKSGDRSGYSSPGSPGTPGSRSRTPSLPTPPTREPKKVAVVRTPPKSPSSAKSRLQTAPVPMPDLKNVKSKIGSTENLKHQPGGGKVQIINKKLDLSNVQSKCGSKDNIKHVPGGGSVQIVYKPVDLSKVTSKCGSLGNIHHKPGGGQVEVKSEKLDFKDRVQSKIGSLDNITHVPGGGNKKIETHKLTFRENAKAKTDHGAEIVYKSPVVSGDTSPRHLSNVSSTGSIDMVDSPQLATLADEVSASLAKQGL
Sequence of human Tau splice isoform 2N3R (Tau410) (P10636 other isoform, or with tags, fused parts or gaps limits assumed): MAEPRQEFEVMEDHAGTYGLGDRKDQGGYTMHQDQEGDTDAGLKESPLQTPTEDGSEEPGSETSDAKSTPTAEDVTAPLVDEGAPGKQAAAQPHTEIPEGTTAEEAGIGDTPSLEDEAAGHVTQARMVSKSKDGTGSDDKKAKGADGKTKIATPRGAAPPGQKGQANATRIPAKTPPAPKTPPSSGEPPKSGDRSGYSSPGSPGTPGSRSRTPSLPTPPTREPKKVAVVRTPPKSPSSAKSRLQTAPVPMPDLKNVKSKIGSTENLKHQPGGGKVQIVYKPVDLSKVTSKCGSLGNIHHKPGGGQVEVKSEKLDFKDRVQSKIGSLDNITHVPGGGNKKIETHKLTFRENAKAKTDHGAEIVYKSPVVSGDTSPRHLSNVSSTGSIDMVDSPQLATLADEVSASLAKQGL
T4 sequence (P10636 other isoform, or with tags, fused parts or gaps limits assumed): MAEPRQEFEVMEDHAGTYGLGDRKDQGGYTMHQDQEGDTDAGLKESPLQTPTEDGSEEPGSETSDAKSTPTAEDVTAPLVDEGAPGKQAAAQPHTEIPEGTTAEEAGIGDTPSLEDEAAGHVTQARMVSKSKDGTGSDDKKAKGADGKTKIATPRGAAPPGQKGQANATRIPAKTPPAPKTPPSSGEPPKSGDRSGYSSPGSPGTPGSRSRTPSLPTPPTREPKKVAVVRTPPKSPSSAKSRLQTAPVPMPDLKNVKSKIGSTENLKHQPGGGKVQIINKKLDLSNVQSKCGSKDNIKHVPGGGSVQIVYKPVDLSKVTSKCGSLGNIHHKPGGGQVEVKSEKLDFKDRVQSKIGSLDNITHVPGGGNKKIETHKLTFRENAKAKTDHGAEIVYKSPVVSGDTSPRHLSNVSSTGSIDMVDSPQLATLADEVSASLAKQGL
Sequence of human Tau splice isoform 1N4R (Tau412) (P10636 other isoform, or with tags, fused parts or gaps limits assumed): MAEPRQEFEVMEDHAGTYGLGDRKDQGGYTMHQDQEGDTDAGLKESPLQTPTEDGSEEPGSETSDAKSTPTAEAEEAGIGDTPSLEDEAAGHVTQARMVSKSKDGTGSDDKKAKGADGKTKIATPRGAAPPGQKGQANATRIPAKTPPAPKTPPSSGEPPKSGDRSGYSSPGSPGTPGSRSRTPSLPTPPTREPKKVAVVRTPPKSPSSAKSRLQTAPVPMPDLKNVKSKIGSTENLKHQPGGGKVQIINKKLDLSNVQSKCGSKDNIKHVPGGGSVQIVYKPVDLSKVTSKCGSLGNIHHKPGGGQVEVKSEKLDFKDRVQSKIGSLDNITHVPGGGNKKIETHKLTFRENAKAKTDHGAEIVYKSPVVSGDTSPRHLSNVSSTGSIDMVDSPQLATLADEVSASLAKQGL
Sequence of mouse Tau (P10637 other isoform, or with tags, fused parts or gaps limits assumed): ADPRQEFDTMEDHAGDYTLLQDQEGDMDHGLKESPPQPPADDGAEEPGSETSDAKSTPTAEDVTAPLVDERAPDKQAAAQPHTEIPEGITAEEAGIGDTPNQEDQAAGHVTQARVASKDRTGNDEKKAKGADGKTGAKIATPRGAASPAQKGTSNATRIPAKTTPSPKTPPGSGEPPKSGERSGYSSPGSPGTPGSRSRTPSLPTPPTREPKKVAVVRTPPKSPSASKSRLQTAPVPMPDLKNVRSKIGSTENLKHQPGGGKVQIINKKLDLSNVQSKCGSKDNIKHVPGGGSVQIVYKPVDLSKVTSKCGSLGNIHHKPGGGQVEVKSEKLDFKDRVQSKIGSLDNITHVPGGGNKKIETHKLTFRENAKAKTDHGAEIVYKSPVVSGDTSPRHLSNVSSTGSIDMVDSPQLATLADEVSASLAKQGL
Sequence of human Tau splice isoform 1N3R (Tau381) (P10636 other isoform, or with tags, fused parts or gaps limits assumed): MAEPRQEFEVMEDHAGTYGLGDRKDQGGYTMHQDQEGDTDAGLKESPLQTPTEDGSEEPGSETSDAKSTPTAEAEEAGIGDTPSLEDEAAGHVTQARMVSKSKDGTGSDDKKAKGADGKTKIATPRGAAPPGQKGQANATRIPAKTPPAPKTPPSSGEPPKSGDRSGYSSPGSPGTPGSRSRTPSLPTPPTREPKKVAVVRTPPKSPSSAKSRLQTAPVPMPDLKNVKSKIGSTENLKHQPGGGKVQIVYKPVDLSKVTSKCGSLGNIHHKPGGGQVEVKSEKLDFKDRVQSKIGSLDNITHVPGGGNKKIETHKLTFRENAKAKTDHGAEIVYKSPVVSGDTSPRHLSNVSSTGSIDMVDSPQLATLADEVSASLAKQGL

Binder | A450 avg. [1] | A450 avg. [2] | A450 avg. [3] | A450 avg. (mouse Tau) | A450 avg. [4] | A450 avg. [5] | A450 avg. [6] | A450 avg. [7] | A450 avg. (cynomolgus monkey Tau) | A450 avg. [8] | A450 avg. [9] | A450 (mouse Tau) | normalized binding of second antibody [10] | normalized binding of second antibody [11] | normalized binding of second antibody [12] | Kd [13] | normalized binding of second antibody [14] | normalized binding of second antibody [15] | Kd [16] [nM]
B1 | 2.52 | 1.52 | 1.8 | 1.95 | 2.59 | 2.39 | 2.37 | 1.54 | 1.81 | 2.09 | 2.5 |  |  |  |  |  |  |  | 
B2 | 2.75 | 2.12 | 2.3 | 0.06 | 2.7 | 2.69 | 2.66 | 2.4 | 2.31 | 2.24 | 2.73 | 0.06 |  |  |  |  |  |  | 
B3 | 2.54 | 1.64 | 2.08 | 2.07 | 2.58 | 2.33 | 2.48 | 1.19 | 1.9 | 2.08 | 2.57 |  |  |  |  |  |  |  | 
B4 | 1.46 | 0.806 | 1.13 | 1.1 | 1.49 | 0.939 | 1.19 | 0.323 | 0.867 | 1.19 | 1.47 |  |  |  |  |  |  |  | 
B5 | 2 | 1.23 | 1.68 | 1.51 | 2.16 | 1.8 | 1.88 | 0.725 | 1.53 | 1.61 | 2.04 |  |  |  |  |  |  |  | 
B6 |  |  |  |  |  |  |  |  |  |  |  |  | 0.88 | 1 | 0.84 | 0.8 nM and 0.44 nM | 0.82 | 0.03 | 0.2
